Laboratory results from patent publication US6455025B1, “Polysaccharide-peptide derivatives” (Map Medical Technologies Oy, priority 1996, dated 2002).

How the values were obtained:
[1] = Holmberg et al. 1994; cited from earlier work
[2] = tested on: tumours and other background tissues; experiment: Gamma-recording after technetium-99m labelled dextran derivative: accumulation into tumours and background tissues; conditions: patient, 20 mCi technetium-99m labelled dextran derivative
Procedure: The Effect of Different Dextran Conjugates on the Tumour Accumulation and Background-activity
After the administration of 20 mCi of technetium-99 m, labelled dextran derivative to the patient a gamma-recording was carried out on the patient. From the image, the accumulation of the labelled compound into the tumours and to the other background tissues was evaluated. The compounds of the state of the art were prepared as described in the publication Holmberg et al., Antibody Immunoconj. Radiopharm 7: 253-257, 1994.

Substance | half-life in blood T(1)½ [1] [h] | half-life in blood T(2)½ [1] [h] | Background (accumulation of the labelled compound into other background tissues) [2] | Tumour (accumulation of the labelled compound into the tumours) [2]
Dextran 10 000 somatostatin-^99mTc: State of the art conjugate prepared as in Holmberg et al. 1994; dextran 10 000 somatostatin labelled with technetium-99m | 4 | 8 | +++ | +
Dextran 40 000 somatostatin-taurine ^99mTc: Dextran 40 000-somatostatin-taurine labelled with technetium-99m using SnCl and sodium pertechnetate |  |  | + | 
Dextran 40 000 somatostatin ^99mTc: State of the art dextran 40 000 somatostatin conjugate labelled with technetium-99m, without taurine |  |  | ++ | ++
Dextran 10 000 somatostatin-taurine-^99mTc: Technetium-99m labelled dextran 10 000 somatostatin taurine conjugate, listed under The Invention |  |  | ++ | +
